Values of other authors as cited in paper PMC6368066 (Neuromuscular disorders : NMD, 2018).
Where no end group is shown, it is not given here.

Experiments:
[1] = tested on: dystrophin; conditions: phase III trials, over 180 weeks
[2] = target: Piezo 1 (UniProt E2JF22); experiment: outside-out patch clamp
[3] = tested on: mdx muscles; conditions: mdx muscles in vitro, 10 μM

UniProt E2JF22, sequence (E2JF22 whole entry): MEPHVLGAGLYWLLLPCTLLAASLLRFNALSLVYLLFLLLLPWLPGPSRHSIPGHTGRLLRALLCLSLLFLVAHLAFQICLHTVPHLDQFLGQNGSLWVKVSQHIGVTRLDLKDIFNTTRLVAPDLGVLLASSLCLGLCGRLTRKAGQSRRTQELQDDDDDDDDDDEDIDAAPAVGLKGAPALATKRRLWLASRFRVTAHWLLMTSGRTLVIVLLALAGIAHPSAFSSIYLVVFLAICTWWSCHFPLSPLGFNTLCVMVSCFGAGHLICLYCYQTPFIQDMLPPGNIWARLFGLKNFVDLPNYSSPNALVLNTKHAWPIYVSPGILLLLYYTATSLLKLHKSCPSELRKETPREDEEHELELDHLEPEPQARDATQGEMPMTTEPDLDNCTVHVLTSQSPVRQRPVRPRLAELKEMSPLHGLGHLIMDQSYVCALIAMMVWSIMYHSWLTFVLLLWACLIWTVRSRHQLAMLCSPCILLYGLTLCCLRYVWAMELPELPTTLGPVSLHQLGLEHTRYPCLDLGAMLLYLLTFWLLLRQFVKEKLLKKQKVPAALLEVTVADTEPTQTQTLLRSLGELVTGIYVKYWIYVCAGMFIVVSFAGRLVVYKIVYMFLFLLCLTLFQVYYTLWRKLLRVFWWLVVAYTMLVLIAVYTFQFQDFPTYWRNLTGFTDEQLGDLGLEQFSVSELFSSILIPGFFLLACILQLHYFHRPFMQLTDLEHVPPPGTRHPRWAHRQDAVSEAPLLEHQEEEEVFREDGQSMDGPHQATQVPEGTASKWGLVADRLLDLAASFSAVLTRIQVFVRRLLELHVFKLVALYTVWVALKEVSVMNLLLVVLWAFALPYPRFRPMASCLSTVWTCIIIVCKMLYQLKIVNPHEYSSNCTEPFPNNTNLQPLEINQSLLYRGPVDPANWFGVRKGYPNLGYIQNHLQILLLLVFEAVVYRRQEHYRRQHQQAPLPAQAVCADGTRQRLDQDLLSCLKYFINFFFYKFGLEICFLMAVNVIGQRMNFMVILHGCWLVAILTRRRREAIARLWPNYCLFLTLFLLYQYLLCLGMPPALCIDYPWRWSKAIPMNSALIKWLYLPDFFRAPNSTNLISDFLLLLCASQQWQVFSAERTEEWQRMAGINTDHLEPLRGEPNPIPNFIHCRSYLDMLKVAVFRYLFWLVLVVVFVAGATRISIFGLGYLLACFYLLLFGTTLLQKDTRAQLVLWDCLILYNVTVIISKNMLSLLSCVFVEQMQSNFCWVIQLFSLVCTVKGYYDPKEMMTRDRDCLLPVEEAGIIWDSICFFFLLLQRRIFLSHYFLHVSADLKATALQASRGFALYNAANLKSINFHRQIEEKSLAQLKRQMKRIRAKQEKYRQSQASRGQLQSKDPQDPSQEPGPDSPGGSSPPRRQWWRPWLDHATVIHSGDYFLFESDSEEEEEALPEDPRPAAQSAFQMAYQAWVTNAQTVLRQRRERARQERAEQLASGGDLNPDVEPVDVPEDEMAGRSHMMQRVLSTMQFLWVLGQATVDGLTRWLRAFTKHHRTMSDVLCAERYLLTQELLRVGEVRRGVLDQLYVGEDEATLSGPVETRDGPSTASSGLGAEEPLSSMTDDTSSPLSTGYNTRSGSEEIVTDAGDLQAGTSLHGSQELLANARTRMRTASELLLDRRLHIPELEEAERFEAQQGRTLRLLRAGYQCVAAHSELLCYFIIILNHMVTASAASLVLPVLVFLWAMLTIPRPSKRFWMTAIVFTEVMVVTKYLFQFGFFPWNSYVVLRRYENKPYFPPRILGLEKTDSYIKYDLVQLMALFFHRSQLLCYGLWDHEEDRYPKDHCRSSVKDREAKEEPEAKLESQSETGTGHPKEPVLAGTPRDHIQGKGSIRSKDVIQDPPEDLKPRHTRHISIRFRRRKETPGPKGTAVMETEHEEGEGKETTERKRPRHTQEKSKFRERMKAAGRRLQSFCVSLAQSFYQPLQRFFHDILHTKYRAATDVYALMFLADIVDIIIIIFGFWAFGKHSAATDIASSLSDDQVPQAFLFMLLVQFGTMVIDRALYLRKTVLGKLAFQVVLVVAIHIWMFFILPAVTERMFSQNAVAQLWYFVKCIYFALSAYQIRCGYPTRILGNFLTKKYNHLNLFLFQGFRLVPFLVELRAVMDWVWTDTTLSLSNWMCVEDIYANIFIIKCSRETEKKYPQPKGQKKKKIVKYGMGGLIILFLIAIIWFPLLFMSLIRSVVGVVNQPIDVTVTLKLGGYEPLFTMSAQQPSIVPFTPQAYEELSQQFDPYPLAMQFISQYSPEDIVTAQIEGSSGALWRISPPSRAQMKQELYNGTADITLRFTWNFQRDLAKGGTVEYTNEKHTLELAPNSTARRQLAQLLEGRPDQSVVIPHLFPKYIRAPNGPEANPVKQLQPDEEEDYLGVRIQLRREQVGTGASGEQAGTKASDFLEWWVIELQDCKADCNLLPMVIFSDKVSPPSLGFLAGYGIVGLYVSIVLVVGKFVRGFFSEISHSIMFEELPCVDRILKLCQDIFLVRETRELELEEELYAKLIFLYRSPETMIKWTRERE

glucagon
serum half-life: 1 to 2 min

eteplirsen
dystrophin levels [1]: ~ 1 % of normal dystrophin levels

GsMTx4 (from UniProt Q7YT39)
Kd [2]: 500 nM

GsMTx4: 34 amino acid peptide that selectively inhibits nonselective cationic MSCs (GCLEFWWKCNPNDDKCCRPKLKCSKLFKLCNFSF; ends and bridges not checked; cysteine pairing not given here; UniProt Q7YT39 47-80, looked up)
contraction-induced dye accumulation [3]: reduced contraction-induced dye accumulation
